According to article PMC7367873, “Dissecting the sequence determinants for dephosphorylation by the catalytic subunits of phosphatases PP1 and PP2A” (Nature Communications, 2020):

B1: MYO1B (protein, UniProt O43795 1-1136, looked up)
Unconventional myosin-Ib: MAKMEVKTSLLDNMIGVGDMVLLEPLNEETFINNLKKRFDHSEIYTYIGSVVISVNPYRSLPIYSPEKVEEYRNRNFYELSPHIFALSDEAYRSLRDQDKDQCILITGESGAGKTEASKLVMSYVAAVCGKGAEVNQVKEQLLQSNPVLEAFGNAKTVRNDNSSRFGKYMDIEFDFKGDPLGGVISNYLLEKSRVVKQPRGERNFHVFYQLLSGASEELLNKLKLERDFSRYNYLSLDSAKVNGVDDAANFRTVRNAMQIVGFMDHEAESVLAVVAAVLKLGNIEFKPESRVNGLDESKIKDKNELKEICELTGIDQSVLERAFSFRTVEAKQEKVSTTLNVAQAYYARDALAKNLYSRLFSWLVNRINESIKAQTKVRKKVMGVLDIYGFEIFEDNSFEQFIINYCNEKLQQIFIELTLKEEQEEYIREDIEWTHIDYFNNAIICDLIENNTNGILAMLDEECLRPGTVTDETFLEKLNQVCATHQHFESRMSKCSRFLNDTSLPHSCFRIQHYAGKVLYQVEGFVDKNNDLLYRDLSQAMWKASHALIKSLFPEGNPAKINLKRPPTAGSQFKASVATLMKNLQTKNPNYIRCIKPNDKKAAHIFNEALVCHQIRYLGLLENVRVRRAGYAFRQAYEPCLERYKMLCKQTWPHWKGPARSGVEVLFNELEIPVEEYSFGRSKIFIRNPRTLFKLEDLRKQRLEDLATLIQKIYRGWKCRTHFLLMKKSQIVIAAWYRRYAQQKRYQQTKSSALVIQSYIRGWKARKILRELKHQKRCKEAVTTIAAYWHGTQARRELRRLKEEARNKHAIAVIWAYWLGSKARRELKRLKEEARRKHAVAVIWAYWLGLKVRREYRKFFRANAGKKIYEFTLQRIVQKYFLEMKNKMPSLSPIDKNWPSRPYLFLDSTHKELKRIFHLWRCKKYRDQFTDQQKLIYEEKLEASELFKDKKALYPSSVGQPFQGAYLEINKNPKYKKLKDAIEEKIIIAEVVNKINRANGKSTSRIFLLTNNNLLLADQKSGQIKSEVPLVDVTKVSMSSQNDGFFAVHLKEGSEAASKGDFLFSSDHLIEMATKLYRTTLSQTKQKLNIEISDEFLVQFRQDKVCVKFIQGNQKNGSVPTCKRKNNRLLEVAVP
B2: OSBPL8 (protein, UniProt Q9BZF1 1-889, looked up)
Oxysterol-binding …: MEGGLADGEPDRTSLLGDSKDVLGPSTVVANSDESQLLTPGKMSQRQGKEAYPTPTKDLHQPSLSPASPHSQGFERGKEDISQNKDESSLSMSKSKSESKLYNGSEKDSSTSSKLTKKESLKVQKKNYREEKKRATKELLSTITDPSVIVMADWLKIRGTLKSWTKLWCVLKPGVLLIYKTQKNGQWVGTVLLNACEIIERPSKKDGFCFKLFHPLEQSIWAVKGPKGEAVGSITQPLPSSYLIIRATSESDGRCWMDALELALKCSSLLKRTMIREGKEHDLSVSSDSTHVTFYGLLRANNLHSGDNFQLNDSEIERQHFKDQDMYSDKSDKENDQEHDESDNEVMGKSEESDTDTSERQDDSYIEPEPVEPLKETTYTEQSHEELGEAGEASQTETVSEENKSLIWTLLKQVRPGMDLSKVVLPTFILEPRSFLDKLSDYYYHADFLSEAALEENPYFRLKKVVKWYLSGFYKKPKGLKKPYNPILGETFRCLWIHPRTNSKTFYIAEQVSHHPPISAFYVSNRKDGFCLSGSILAKSKFYGNSLSAILEGEARLTFLNRGEDYVMTMPYAHCKGILYGTMTLELGGTVNITCQKTGYSAILEFKLKPFLGSSDCVNQISGKLKLGKEVLATLEGHWDSEVFITDKKTDNSEVFWNPTPDIKQWRLIRHTVKFEEQGDFESEKLWQRVTRAINAKDQTEATQEKYVLEEAQRQAARDRKTKNEEWSCKLFELDPLTGEWHYKFADTRPWDPLNDMIQFEKDGVIQTKVKHRTPMVSVPKMKHKPTRQQKKVAKGYSSPEPDIQDSSGSEAQSVKPSTRRKKGIELGDIQSSIESIKQTQEEIKRNIMALRNHLVSSTPATDYFLQQKDYFIIFLLILLQVIINFMFK
B3: COPA (protein, UniProt P53621 1-1224, looked up)
Coatomer subunit alpha: MLTKFETKSARVKGLSFHPKRPWILTSLHNGVIQLWDYRMCTLIDKFDEHDGPVRGIDFHKQQPLFVSGGDDYKIKVWNYKLRRCLFTLLGHLDYIRTTFFHHEYPWILSASDDQTIRVWNWQSRTCVCVLTGHNHYVMCAQFHPTEDLVVSASLDQTVRVWDISGLRKKNLSPGAVESDVRGITGVDLFGTTDAVVKHVLEGHDRGVNWAAFHPTMPLIVSGADDRQVKIWRMNESKAWEVDTCRGHYNNVSCAVFHPRQELILSNSEDKSIRVWDMSKRTGVQTFRRDHDRFWVLAAHPNLNLFAAGHDGGMIVFKLERERPAYAVHGNMLHYVKDRFLRQLDFNSSKDVAVMQLRSGSKFPVFNMSYNPAENAVLLCTRASNLENSTYDLYTIPKDADSQNPDAPEGKRSSGLTAVWVARNRFAVLDRMHSLLIKNLKNEITKKVQVPNCDEIFYAGTGNLLLRDADSITLFDVQQKRTLASVKISKVKYVIWSADMSHVALLAKHAIVICNRKLDALCNIHENIRVKSGAWDESGVFIYTTSNHIKYAVTTGDHGIIRTLDLPIYVTRVKGNNVYCLDRECRPRVLTIDPTEFKFKLALINRKYDEVLHMVRNAKLVGQSIIAYLQKKGYPEVALHFVKDEKTRFSLALECGNIEIALEAAKALDDKNCWEKLGEVALLQGNHQIVEMCYQRTKNFDKLSFLYLITGNLEKLRKMMKIAEIRKDMSGHYQNALYLGDVSERVRILKNCGQKSLAYLTAATHGLDEEAESLKETFDPEKETIPDIDPNAKLLQPPAPIMPLDTNWPLLTVSKGFFEGTIASKGKGGALAADIDIDTVGTEGWGEDAELQLDEDGFVEATEGLGDDALGKGQEEGGGWDVEEDLELPPELDISPGAAGGAEDGFFVPPTKGTSPTQIWCNNSQLPVDHILAGSFETAMRLLHDQVGVIQFGPYKQLFLQTYARGRTTYQALPCLPSMYGYPNRNWKDAGLKNGVPAVGLKLNDLIQRLQLCYQLTTVGKFEEAVEKFRSILLSVPLLVVDNKQEIAEAQQLITICREYIVGLSVETERKKLPKETLEQQKRICEMAAYFTHSNLQPVHMILVLRTALNLFFKLKNFKTAATFARRLLELGPKPEVAQQTRKILSACEKNPTDAYQLNYDMHNPFDICAASYRPIYRGKPVEKCPLSGACYSPEFKGQICRVTTVTEIGKDVIGLRISPLQFR
B4: DHX29 (protein, UniProt Q7Z478 1-1369, looked up)
ATP-dependent RNA helicase …: MGGKNKKHKAPAAAVVRAAVSASRAKSAEAGIAGEAQSKKPVSRPATAAAAAAGSREPRVKQGPKIYSFNSTNDSSGPANLDKSILKVVINNKLEQRIIGVINEHKKQNNDKGMISGRLTAKKLQDLYMALQAFSFKTKDIEDAMTNTLLYGGDLHSALDWLCLNLSDDALPEGFSQEFEEQQPKSRPKFQSPQIQATISPPLQPKTKTYEEDPKSKPKKEEKNMEVNMKEWILRYAEQQNEEEKNENSKSLEEEEKFDPNERYLHLAAKLLDAKEQAATFKLEKNKQGQKEAQEKIRKFQREMETLEDHPVFNPAMKISHQQNERKKPPVATEGESALNFNLFEKSAAATEEEKDKKKEPHDVRNFDYTARSWTGKSPKQFLIDWVRKNLPKSPNPSFEKVPVGRYWKCRVRVIKSEDDVLVVCPTILTEDGMQAQHLGATLALYRLVKGQSVHQLLPPTYRDVWLEWSDAEKKREELNKMETNKPRDLFIAKLLNKLKQQQQQQQQHSENKRENSEDPEESWENLVSDEDFSALSLESANVEDLEPVRNLFRKLQSTPKYQKLLKERQQLPVFKHRDSIVETLKRHRVVVVAGETGSGKSTQVPHFLLEDLLLNEWEASKCNIVCTQPRRISAVSLANRVCDELGCENGPGGRNSLCGYQIRMESRACESTRLLYCTTGVLLRKLQEDGLLSNVSHVIVDEVHERSVQSDFLLIILKEILQKRSDLHLILMSATVDSEKFSTYFTHCPILRISGRSYPVEVFHLEDIIEETGFVLEKDSEYCQKFLEEEEEVTINVTSKAGGIKKYQEYIPVQTGAHADLNPFYQKYSSRTQHAILYMNPHKINLDLILELLAYLDKSPQFRNIEGAVLIFLPGLAHIQQLYDLLSNDRRFYSERYKVIALHSILSTQDQAAAFTLPPPGVRKIVLATNIAETGITIPDVVFVIDTGRTKENKYHESSQMSSLVETFVSKASALQRQGRAGRVRDGFCFRMYTRERFEGFMDYSVPEILRVPLEELCLHIMKCNLGSPEDFLSKALDPPQLQVISNAMNLLRKIGACELNEPKLTPLGQHLAALPVNVKIGKMLIFGAIFGCLDPVATLAAVMTEKSPFTTPIGRKDEADLAKSALAMADSDHLTIYNAYLGWKKARQEGGYRSEITYCRRNFLNRTSLLTLEDVKQELIKLVKAAGFSSSTTSTSWEGNRASQTLSFQEIALLKAVLVAGLYDNVGKIIYTKSVDVTEKLACIVETAQGKAQVHPSSVNRDLQTHGWLLYQEKIRYARVYLRETTLITPFPVLLFGGDIEVQHRERLLSIDGWIYFQAPVKIAVIFKQLRVLIDSVLRKKLENPKMSLENDKILQIITELIKTENN
B5: SLC2A1 (protein, UniProt P11166 1-492, looked up)
Solute carrier family 2, …: MEPSSKKLTGRLMLAVGGAVLGSLQFGYNTGVINAPQKVIEEFYNQTWVHRYGESILPTTLTTLWSLSVAIFSVGGMIGSFSVGLFVNRFGRRNSMLMMNLLAFVSAVLMGFSKLGKSFEMLILGRFIIGVYCGLTTGFVPMYVGEVSPTALRGALGTLHQLGIVVGILIAQVFGLDSIMGNKDLWPLLLSIIFIPALLQCIVLPFCPESPRFLLINRNEENRAKSVLKKLRGTADVTHDLQEMKEESRQMMREKKVTILELFRSPAYRQPILIAVVLQLSQQLSGINAVFYYSTSIFEKAGVQQPVYATIGSGIVNTAFTVVSLFVVERAGRRTLHLIGLAGMAGCAILMTIALALLEQLPWMSYLSIVAIFGFVAFFEVGPGPIPWFIVAELFSQGPRPAAIAVAGFSNWTSNFIVGMCFQYVEQLCGPYVFIIFTVLLVLFFIFTYFKVPETKGRTFDEIASGFRQGGASQSDKTPEELFHPLGADSQV
B6: RCN1 (protein, UniProt Q15293 30-331, looked up)
Reticulocalbin-1: KPTVRKERVVRPDSELGERPPEDNQSFQYDHEAFLGKEDSKTFDQLTPDESKERLGKIVDRIDNDGDGFVTTEELKTWIKRVQKRYIFDNVAKVWKDYDRDKDDKISWEEYKQATYGYYLGNPAEFHDSSDHHTFKKMLPRDERRFKAADLNGDLTATREEFTAFLHPEEFEHMKEIVVLETLEDIDKNGDGFVDQDEYIADMFSHEENGPEPDWVLSEREQFNEFRDLNKDGKLDKDEIRHWILPQDYDHAQAEARHLVYESDKNKDEKLTKEEILENWNMFVGSQATNYGEDLTKNHDEL
B7: HNRNPD (protein, UniProt Q14103 2-355, looked up)
Heterogeneous nuclear …: SEEQFGGDGAAAAATAAVGGSAGEQEGAMVAATQGAAAAAGSGAGTGGGTASGGTEGGSAESEGAKIDASKNEEDEGHSNSSPRHSEAATAQREEWKMFIGGLSWDTTKKDLKDYFSKFGEVVDCTLKLDPITGRSRGFGFVLFKESESVDKVMDQKEHKLNGKVIDPKRAKAMKTKEPVKKIFVGGLSPDTPEEKIREYFGGFGEVESIELPMDNKTNKRRGFCFITFKEEEPVKKIMEKKYHNVGLSKCEIKVAMSKEQYQQQQQWGSRGGFAGRARGRGGGPSQNWNQGYSNYWNQGYGNYGYNSQGYGGYGGYDYTGYNNYYGYGDYSNQQSGYGKVSRRGGHQNSYKPY

What follows are molecules tested on GFP-14-3-3β and its binding proteins (assay: GFP-14-3-3β co-IP with LC-MS/MS label-free quantification, untreated versus PP1c-treated). Conditions: PP1 vs untreated; LFQ intensities; 3 replicates each.
Set-up: species or system human
In the case of B1, the “Difference (log2), PP1 vs untreated” value is reported as 0.5838 log2.
For B2, the “Difference (log2), PP1 vs untreated” value was 0.5791 log2.
B3 was tested, and the “Difference (log2), PP1 vs untreated” value was 0.5643 log2.
With B4 the “Difference (log2), PP1 vs untreated” value was 0.5459 log2.
In the case of B5, the “Difference (log2), PP1 vs untreated” value is reported as 0.5451 log2.
In the case of B6, the “Difference (log2), PP1 vs untreated” value is reported as 0.5407 log2.
In the case of B7, the “Difference (log2), PP1 vs untreated” value is reported as 0.5387 log2.

What follows are molecules tested on GFP-14-3-3β (assay: GFP-14-3-3β co-IP with LC-MS/MS, untreated GFP-14-3-3β versus GFP control (14-3-3 interactome)). Conditions: untreated vs GFP; LFQ intensities; 3 replicates each.
Assay type: binding, human
In the case of B1, the “Difference (log2), untreated vs GFP” value is reported as -1.083 log2.
In the case of B2, the “Difference (log2), untreated vs GFP” value is reported as 0.9951 log2.
With B3 the “Difference (log2), untreated vs GFP” value was -0.09761 log2.
In the case of B4, the “Difference (log2), untreated vs GFP” value is reported as 1.239 log2.
B5 was tested, and the “Difference (log2), untreated vs GFP” value was -0.3989 log2.
B6 was tested, and the “Difference (log2), untreated vs GFP” value was -0.5528 log2.
For B7, the “Difference (log2), untreated vs GFP” value was 0.1919 log2.
